From publication PMC8423243
Where two headings read alike, the source gives them in different places.

Row | Substance | other (N-glycosylation at N289) | other (N-glycosylation at N241) | other (N-glycosylation at N611)
1 | BG505 Env P291T (virus) / P291S (SOSIP) variant: P291T and S241N + P291T (PNGS knock-ins; direction given for knock-in relative to parental BG505) | decreases | – | –
2 | BG505 Env S241N variant (SOSIP and virus): S241N + P291T (double PNGS knock-in; direction given for knock-in relative to parental BG505) | – | abolishes | –
3 | BG505 Env P291T (virus) / P291S (SOSIP) variant: P291T (PNGS knock-in at N289; direction given for knock-in relative to parental BG505) | abolishes | – | –
4 | BG505 Env (BG505 SOSIP trimer and BG505 T332N virus): deletion of the N611 PNGS (N611A virus) | – | – | no change
5 | BG505 Env S241N variant (SOSIP and virus): S241N (PNGS knock-in; direction given for knock-in relative to parental BG505) | – | abolishes | –
6 | BG505 Env (BG505 SOSIP trimer and BG505 T332N virus): N611A (virus) | – | – | increases
